Source: PMC2757703

Test system: 40S small ribosomal subunit (rabbit reticulocyte lysate) (rabbit)
Assay: sucrose density gradient
Conditions: EMSA: 20 mM Tris pH 7.6, 50 mM KCl, 2.5 mM MgOAc, 0.05% NP40, 1 mM DTT, 1 ug/uL yeast tRNA, 30 C 20 min, gradients: 20 mM Tris-HCl pH 7.5, 100 mM KOAc

With CrPV IRES RNA as the substance, how does the binding signal (% of labeled RNA bound to small subunit) read?
Its binding signal (% of labeled RNA bound to small subunit) is greater than 50.

How did the binding signal (scale: % of labeled RNA in small-subunit fractions) turn out when GLV IRES RNA was run?
Its binding signal is 10.
